Measured values: the supplement of paper PMC11246515
± gives the standard deviation of the averaged measurements.

Assay: total protein half-life in vivo (active degradation + dilution); higher = more stable protein
[1] = E. coli NCM3722 delta-clpP delta-lon delta-hslV, growth: N-lim chemostat, doubling time 6 h
[2] = E. coli NCM3722 delta-clpP, growth: N-lim chemostat, doubling time 6 h
[3] = E. coli NCM3722 delta-hslV, growth: N-lim chemostat, doubling time 6 h
[4] = E. coli NCM3722 delta-lon, growth: N-lim chemostat, doubling time 6 h
[5] = E. coli NCM3722 delta-smpB, growth: N-lim chemostat, doubling time 6 h
[6] = wild type E. coli NCM3722, growth: C-lim chemostat, doubling time 3 h
[7] = wild type E. coli NCM3722, growth: C-lim chemostat, doubling time 6 h
[8] = wild type E. coli NCM3722, growth: C-lim chemostat, doubling time 12 h
[9] = wild type E. coli NCM3722, growth: N-lim chemostat, doubling time 6 h
[10] = wild type E. coli NCM3722, growth: N-lim chemostat, doubling time 12 h
[11] = wild type E. coli NCM3722, growth: P-lim chemostat, doubling time 6 h
[12] = wild type E. coli NCM3722, growth: P-lim chemostat, doubling time 12 h

Sequence	total protein half-life in vivo [1] [h]	total protein half-life in vivo [2] [h]	total protein half-life in vivo [3] [h]	total protein half-life in vivo [4] [h]	total protein half-life in vivo [5] [h]	total protein half-life in vivo [6] [h]	total protein half-life in vivo [7] [h]	total protein half-life in vivo [8] [h]	total protein half-life in vivo [9] [h]	total protein half-life in vivo [10] [h]	total protein half-life in vivo [11] [h]	total protein half-life in vivo [12] [h]
MLDAQTIATVKATIPLLVETGPKLTAHFYDRMFTHNPELKEIFNMSNQRNGDQREALFNAIAAYASNIENLPALLPAVEKIAQKHTSFQIKPEQYNIVGEHLLATLDEMFSPGQEVLDAWGKAYGVLANVFINREAEIYNENASKAGGWEGTRDFRIVAKTPRSALITSFELEPVDGGAVAEYRPGQYLGVWLKPEGFPHQEIRQYSLTRKPDGKGYRIAVKREEGGQVSNWLHNHANVGDVVKLVAPAGDFFMAVADDTPVTLISAGVGQTPMLAMLDTLAKAGHTAQVNWFHAAENGDVHAFADEVKELGQSLPRFTAHTWYRQPSEADRAKGQFDSEGLMDLSKLEGAFSDPTMQFYLCGPVGFMQFTAKQLVDLGVKQENIHYECFGPHKVL	2.41 ± 0.082	1.52 ± 0.25	1.56 ± 0.032	1.85 ± 0.057	1.75 ± 0.062	2.76 ± 0.13	3.62 ± 0.29	5.61 ± 0.94	1.79 ± 0.19	2.36 ± 0.053	4.51 ± 0.079	7.88 ± 1.2
MLDEKSSNTASVVVLCTAPDEATAQDLAAKVLAEKLAACATLIPGATSLYYWEGKLEQEYEVQMILKTTVSHQQALLECLKSHHPYQTPELLVLPVTHGDTDYLSWLNASLR	4.37	4.22 ± 1.7	3.56		3.26 ± 0.26			7.25	3.34 ± 0.39	4.91 ± 0.15	5.13 ± 0.32	
MLDIDKSTVDFLVTENMVQEVEKVLSHDVPLVHAIVEEMVKRDIDRIYFVACGSPLNAAQTAKHLADRFSDLQVYAISGWEFCDNTPYRLDDRCAVIGVSDYGKTEEVIKALELGRACGALTAAFTKRADSPITSAAEFSIDYQADCIWEIHLLLCYSVVLEMITRLAPNAEIGKIKNDLKQLPNALGHLVRTWEEKGRQLGELASQWPMIYTVAAGPLRPLGYKEGIVTLMEFTWTHGCVIESGEFRHGPLEIVEPGVPFLFLLGNDESRHTTERAINFVKQRTDNVIVIDYAEISQGLHPWLAPFLMFVPMEWLCYYLSIYKDHNPDERRYYGGLVEY [P0AC00]							2.37 ± 0.41	2.71				
MLDKIDRKLLALLQQDCTLSLQALAEAVNLTTTPCWKRLKRLEDDGILIGKVALLDPEKIGLGLTAFVLIKTQHHSSEWYCRFVTVVTEMPEVLGFWRMAGEYDYLMRVQVADMKRYDEFYKRLVNSVPGLSDVTSSFAMEQIKYTTSLPIE [P0ACJ5]	5.92 ± 0.82	4.67 ± 0.26	4.43 ± 1.7	5.95	5.08 ± 0.24	3.37 ± 0.6	5.09 ± 0.47	8.43 ± 3.3	4.34 ± 0.2	9.01 ± 4.2	4.45	10.3 ± 3.2
MLDKLDAALRFQQEALNLRAQRQEVLAANIANADTPGYQARDIDFASELKKVMQRGRDATSVVALTMTSTQHIPAQALTPPTAELQYRIPDQPSLDGNTVDMDRERTQFADNSLQYQMSLSALSGQIKGMMNVLQSGN [P0ABW9]						1.32						
MLDKLRSRIVHLGPSLLSVPVKLTPFALKRQVLEQVLSWQFRQALDDGELEFLEGRWLSIHVRDIDLQWFTSVVNGKLVVSQNAQADVSFSADASDLLMIAARKQDPDTLFFQRRLVIEGDTELGLYVKNLMDAIELEQMPKALRMMLLQLADFVEAGMKTAPETKQTSVGEPC	3.71 ± 1.3	2.5			0.825 ± 0.014	0.352 ± 0.048					0.825	
MLDLFADAEPWQEPLAAGAVILRRFAFNAAEQLIRDINDVASQSPFRQMVTPGGYTMSVAMTNCGHLGWTTHRQGYLYSPIDPQTNKPWPAMPQSFHNLCQRAATAAGYPDFQPDACLINRYAPGAKLSLHQDKDEPDLRAPIVSVSLGLPAIFQFGGLKRNDPLKRLLLEHGDVVVWGGESRLFYHGIQPLKAGFHPLTIDCRYNLTFRQAGKKE		4.32	2.76	3.17	3.02 ± 0.09				2.87 ± 0.47	4.66 ± 0.55	3.76 ± 0.13	5.89
MLEEYRKHVAERAAEGIAPKPLDANQMAALVELLKNPPAGEEEFLLDLLTNRVPPGVDEAAYVKAGFLAAIAKGEAKSPLLTPEKAIELLGTMQGGYNIHPLIDALDDAKLAPIAAKALSHTLLMFDNFYDVEEKAKAGNEYAKQVMQSWADAEWFLNRPALAEKLTVTVFKVTGETNTDDLSPAPDAWSRPDIPLHALAMLKNAREGIEPDQPGVVGPIKQIEALQQKGFPLAYVGDVVGTGSSRKSATNSVLWFMGDDIPHVPNKRGGGLCLGGKIAPIFFNTMEDAGALPIEVDVSNLNMGDVIDVYPYKGEVRNHETGELLATFELKTDVLIDEVRAGGRIPLIIGRGLTTKAREALGLPHSDVFRQAKDVAESDRGFSLAQKMVGRACGVKGIRPGAYCEPKMTSVGSQDTTGPMTRDELKDLACLGFSADLVMQSFCHTAAYPKPVDVNTHHTLPDFIMNRGGVSLRPGDGVIHSWLNRMLLPDTVGTGGDSHTRFPIGISFPAGSGLVAFAAATGVMPLDMPESVLVRFKGKMQPGITLRDLVHAIPLYAIKQGLLTVEKKGKKNIFSGRILEIEGLPDLKVEQAFELTDASAERSAAGCTIKLNKEPIIEYLNSNIVLLKWMIAEGYGDRRTLERRIQGMEKWLANPELLEADADAEYAAVIDIDLADIKEPILCAPNDPDDARPLSAVQGEKIDEVFIGSCMTNIGHFRAAGKLLDAHKGQLPTRLWVAPPTRMDAAQLTEEGYYSVFGKSGARIEIPGCSLCMGNQARVADGATVVSTSTRNFPNRLGTGANVFLASAELAAVAALIGKLPTPEEYQTYVAQVDKTAVDTYRYLNFNQLSQYTEKADGVIFQTAV	5.12 ± 0.25	3.86 ± 0.1	3.56 ± 0.021	3.3 ± 0.063	2.96 ± 0.046	2.579 ± 0.021	4.71 ± 0.057	7.2 ± 0.21	3.578 ± 0.02	4.92 ± 0.14	3.56 ± 0.094	5.84 ± 0.098
MLELNAKTTALVVIDLQEGILPFAGGPHTADEVVNRAGKLAAKFRASGQPVFLVRVGWSADYAEALKQPVDAPSPAKVLPENWWQHPAALGATDSDIEIIKRQWGAFYGTDLELQLRRRGIDTIVLCGISTNIGVESTARNAWELGFNLVIAEDACSAASAEQHNNSINHIYPRIARVRSVEEILNAL [P0ADI7]	5.53 ± 0.15	5.05 ± 0.3	4.968 ± 0.024		5.08 ± 0.54	3.07 ± 0.33	5.75 ± 0.29	10.9 ± 0.94	5.19 ± 0.59	9.838 ± 0.087	5.81 ± 0.12	12.7 ± 0.69
MLFTLKKVIGNMLLPLPLMLLIIGAGLALLWFSRFQKTGKIFISIGWLALLLLSLQPVADRLLRPIESTYPTWNNSQKVDYIVVLGGGYTWNPQWAPSSNLINNSLPRLNEGIRLWRENPGSKLIFTGGVAKTNTVSTAEVGARVAQSLGVPREQIITLDLPKDTEEEAAAVKQAIGDAPFLLVTSASHLPRAMIFFQQEGLNPLPAPANQLAIDSPLNPWERAIPSPVWLMHSDRVGYETLGRIWQWLKGSSGEPRQE [P0AB01]	6.15 ± 0.43	6.08 ± 0.23		5.87 ± 0.097	5.72 ± 0.58	3.28 ± 0.37	5.4 ± 0.28	10.5 ± 4.9	6.09 ± 0.25		6.876 ± 0.0024	10.6 ± 2.9
MLGKYKAVLALLLLIILVPLTLLMTLGLWVPTLAGIWLPLGTRIALDESPRITRKGLIIPDLRYLVGDCQLAHITNASLSHPSRWLLNVGTVELDSACLAKLPQTEQSPAAPKTLAQWQAMLPNTWINIDKLIFSPWQEWQGKLSLALTSDIQQLRYQGEKVKFQGQLKGQQLTVSELDVVAFENQPPVKLVGEFAMPLVPDGLPVSGHATATLNLPQEPSLVDAELDWQENSGQLIVLARDNGDPLLDLPWQITRQQLTVSDGRWSWPYAGFPLSGRLGVKVDNWQAGLENALVSGRLSVLTQGQAGKGNAVLNFGPGKLSMDNSQLPLQLTGEAKQADLILYARLPAQLSGSLSDPTLTFEPGALLRSKGRVIDSLDIDEIRWPLAGVKVTQRGVDGRLQAILQAHENELGDFVLHMDGLANDFLPDAGRWQWRYWGKGSFTPMNATWDVAGKGEWHDSTITLTDLSTGFDQLQYGTMTVEKPRLILDKPIVWVRDAQHPSFSGALSLDAGQTLFTGGSVLPPSTLKFSVDGRDPTYFLFKGDLHAGEIGPVRVNGRWDGIRLRGNAWWPKQSLTVFQPLVPPDWKMNLRDGELYAQVAFSAAPEQGFRAGGHGVLKGGSAWMPDNQVNGVDFVLPFRFADGAWHLGTRGPVTLRIAEVINLVTAKNITADLQGRYPWTEEEPLLLTDVSVDVLGGNVLMKQLRMPQHDPALLRLNNLSSSELVSAVNPKQFAMSGAFSGALPLWLNNEKWIVKDGWLANSGPMTLRLDKDTADAVVKDNMTAGSAINWLRYMEISRSSTKINLDNLGLLTMQANITGTSRVDGKSGTVNLNYHHEENIFTLWRSLRFGDNLQAWLEQNARLPGNDCPQGKECEEKQ		5.985 ± 0.043	6.03 ± 0.13	6.22 ± 0.2	5.57 ± 0.078	3.236 ± 0.032	6.2 ± 0.12	10.8 ± 0.14	6 ± 0.47	12.3 ± 0.45	6.06 ± 0.32	12.17 ± 0.039
MLGLKQVHHIAIIATDYAVSKAFYCDILGFTLQSEVYREARDSWKGDLALNGQYVIELFSFPFPPERPSRPEACGLRHLAFSVDDIDAAVAHLESHNVKCETIRVDPYTQKRFTFFNDPDGLPLELYEQ	3.94 ± 0.96	4.26 ± 0.34		4.65 ± 0.89	3.22	2.51	5.13	11.4	3.54	4.57 ± 0.75	6.05 ± 1.1	11.7 ± 0.74
MLGWVITCHDDRAQEILDALEKKHGALLQCRAVNFWRGLSSNMLSRMMCDALHEADSGEGVIFLTDIAGAPPYRVASLLSHKHSRCEVISGVTLPLIEQMMACRETMTSSEFRERIVELGAPEVSSLWHQQQKNPPFVLKHNLYEY	4.15						0.895	0.859				
MLHKKTLLFAALSAALWGGATQAADAAVVASLKPVGFIASAIADGVTETEVLLPDGASEHDYSLRPSDVKRLQNADLVVWVGPEMEAFMQKPVSKLPGAKQVTIAQLEDVKPLLMKSIHGDDDDHDHAEKSDEDHHHGDFNMHLWLSPEIARATAVAIHGKLVELMPQSRAKLDANLKDFEAQLASTETQVGNELAPLKGKGYFVFHDAYGYFEKQFGLTPLGHFTVNPEIQPGAQRLHEIRTQLVEQKATCVFAEPQFRPAVVESVARGTSVRMGTLDPLGTNIKLGKTSYSEFLSQLANQYASCLKGD	3.68 ± 0.41	4.85 ± 0.4	5.99 ± 0.29	7.17 ± 0.96		2.86 ± 0.12	5.54 ± 0.29	9.55 ± 1.5		13.6 ± 1.4	5.24 ± 0.2	11.4 ± 2.3
MLHLFAGLDLHTGLLLLLALAFVLFYEAINGFHDTANAVATVIYTRAMRSQLAVVMAAVFNFLGVLLGGLSVAYAIVHMLPTDLLLNMGSSHGLAMVFSMLLAAIIWNLGTWYFGLPASSSHTLIGAIIGIGLTNALMTGTSVVDALNIPKVLSIFGSLIVSPIVGLVFAGGLIFLLRRYWSGTKKRARIHLTPAEREKKDGKKKPPFWTRIALILSAIGVAFSHGANDGQKGIGLVMLVLIGVAPAGFVVNMNATGYEITRTRDAINNVEAYFEQHPALLKQATGADQLVPAPEAGATQPAEFHCHPSNTINALNRLKGMLTTDVESYDKLSLDQRSQMRRIMLCVSDTIDKVVKMPGVSADDQRLLKKLKSDMLSTIEYAPVWIIMAVALALGIGTMIGWRRVATTIGEKIGKKGMTYAQGMSAQMTAAVSIGLASYTGMPVSTTHVLSSSVAGTMVVDGGGLQRKTVTSILMAWVFTLPAAVLLSGGLYWLSLQFL [P0AFJ7]	6.99 ± 0.45	6.5 ± 1.2			6.14 ± 0.78	3.761 ± 0.013	6.37 ± 1.4	14.4 ± 0.95	6.13 ± 0.24		6.54 ± 0.4	12.6 ± 1
MLHTLHRSPWLTDFAALLRLLSEGDELLLLQDGVTAAVDGNRYLESLRNAPIKVYALNEDLIARGLTGQISNDIILIDYTDFVRLTVKHPSQMAW	5.27 ± 0.29	5.7	4.53 ± 0.13	6.44 ± 1.6	4.89 ± 0.16	3.012 ± 0.0044	5.1	13.4 ± 3	4.39 ± 0.46	8.26	5.89	11.3 ± 0.18
